Target: human CCR8 (human)
Assay: flow cytometry on CD4-gated tumor-infiltrating cells of ovarian cancer; APC-labeled L263G8 2 ug/mL

- positive rate of the FoxP3-positive CCR8-positive fraction: 46.6%
Substance: anti-human CCR8 antibody L263G8 (BioLegend)

Source: patent publication WO2023219147A1
